This note sets out measurements from US20130040853A1, “Context Specific Genetic Screen Platform to Aid in Gene Discovery and Target Validation” (Dana-Farber Cancer Institute Inc., priority 2010, published 2013).

Data set [1] has as its system HMEL-BRAF^V600E melanocytes. Put plainly: In vivo functional genetic screen and secondary validation: kinase-transduced HMEL cells implanted in nude mice. Particulars: for Tumorigenicity in vivo: WT or mutant kinase expressed individually. Details: species or system human. The source says:
A ‘cancer-kinase’ library was constructed containing sequence-verified ORFs in a lentiviral vector for 110 of the 120 kinases reported to sustain somatic driver mutations in diverse human cancers. This library was pooled and introduced into a human HMEL-BRAF^V600E melanocyte model system engineered with BRAF^V600E and TERT as well as p53DD and CDK4-R24C to inactivate the […] pathways, respectively. The HMEL-BRAF^V600E melanocyte profile, while representing the most common clinically-definable genetic profile in human melanoma, is insufficient to drive efficient melanoma formation following orthotopic transplantation in the skin (penetrance of 10% and latency of 26 weeks). In contrast, 40% of HMEL-BRAF^V600E melanocytes transduced with the cancer kinase pools developed tumors with an average latency of 13 weeks (range 10-18 weeks).
In vivo functional genetic screens: Lentivirus were prepared by co-transfecting 293T cells with individual vector backbones and standard virus packaging systems for subsequent collection of viral supernatants. Viral supernatants were then pooled randomly to generate 8 pools of high-titer lentiviral stocks. HMEL cells were transduced with either GFP control lentivirus or each representative lentiviral pool in the presence of 8 ug/ml polybrene (Company). Infected cells were expanded, mixed 1:1 with Matrigel (BD Bioscience) and then subcutaneously implanted in female nude animals (Taconic) at 1×10^6 cells per site on both flanks. Primary INK4A/ARF−/−, PTEN−/− murine astrocytes were transduced with either GFP control lentivirus or each representative lentiviral pool in the presence of 8 ug/ml polybrene (Company). Infected cells were expanded implanted into the brain parenchyma of female SCID mice (Charles River). Briefly, SCID mice were anesthetized and placed into a stereotactic apparatus equipped with a Z axis (Stoelting). A small hole was bored in the skull 0.5 mm anterior and 3.0 mm lateral to the bregma using a dental drill. Twenty thousand cells in Hank's Buffered Salt Solution were injected into the right caudate nucleus 2 mm below the surface of the brain using a 10-ul Hamilton syringe with an unbeveled 30 gauge needle. The scalp was closed using a 9-mm Autoclip Applier. Animals were followed daily for the development of subQ tumors or signs of neurological deficits. Animals were sacrifice, tumors were harvested, genomic DNA was prepared and kinases expressed in each tumor identified using PCR sequencing using plasmid specific CMV and V5 primers. Expression of each kinase was further validated by western blot analysis. Kinases expressed in each tumor were then enlisted into secondary validation screens in which stable HMEL or mouse astrocyte lines were generated expressing each kinase individually. Cells were again expanded and then implanted in female nude or SCID animals. All mice were housed and treated in accordance with protocols approved by the institutional care and use committees for animal research at the Dana-Farber Cancer Institute.

Data set [2] has as its system cJUN phosphorylation. Description: JNK Kinase Assay (WT and mutant kinases immunoprecipitated from HMEL cells). It counts as biochemical, human. Particulars: as reported by level of cJUN phosphorylation; for MAP2K4/7 first incubated with inactive JNK2.

Bounds are passed on as bounds.

B1: JNK1 WT: wild type MAPK8/JNK1 kinase ORF expressed in HMEL cells (protein, UniProt P45983 1-427, looked up)
Mitogen-activated protein …: MSRSKRDNNFYSVEIGDSTFTVLKRYQNLKPIGSGAQGIVCAAYDAILERNVAIKKLSRPFQNQTHAKRAYRELVLMKCVNHKNIIGLLNVFTPQKSLEEFQDVYIVMELMDANLCQVIQMELDHERMSYLLYQMLCGIKHLHSAGIIHRDLKPSNIVVKSDCTLKILDFGLARTAGTSFMMTPYVVTRYYRAPEVILGMGYKENVDLWSVGCIMGEMVCHKILFPGRDYIDQWNKVIEQLGTPCPEFMKKLQPTVRTYVENRPKYAGYSFEKLFPDVLFPADSEHNKLKASQARDLLSKMLVIDASKRISVDEALQHPYINVWYDPSEAEAPPPKIPDKQLDEREHTIEEWKELIYKEVMDLEERTKNGVIRGQPSPLGAAVINGSQHPSSSSSVNDVSSMSTDPTLASDTDSSLEAAAGPLGCCR
Consider B1, for which, in data set [1], the Tumorigenicity in vivo entry is given as “YES”. Further, the “tumor generation individually in secondary HMEL screens” value in data set [1] (kinase transduced individually) is “did not generate tumors”.

B2: MAP2K7 p.R162C: MAP2K7 somatic mutant, observed in colorectal adenocarcinoma (protein, UniProt O14733 2-419, looked up, variant R162C)
Dual specificity …: AASSLEQKLSRLEAKLKQENREARRRIDLNLDISPQRPRPTLQLPLANDGGSRSPSSESSPQHPTPPARPRHMLGLPSTLFTPRSMESIEIDQKLQEIMKQTGYLTIGGQRYQAEINDLENLGEMGSGTCGQVWKMRFRKTGHVIAVKQMRRSGNKEENKCILMDLDVVLKSHDCPYIVQCFGTFITNTDVFIAMELMGTCAEKLKKRMQGPIPERILGKMTVAIVKALYYLKEKHGVIHRDVKPSNILLDERGQIKLCDFGISGRLVDSKAKTRSAGCAAYMAPERIDPPDPTKPDYDIRADVWSLGISLVELATGQFPYKNCKTDFEVLTKVLQEEPPLLPGHMGFSGDFQSFVKDCLTKDHRKRPKYNKLLEHSFIKRYETLEVDVASWFKDVMAKTESPRTSGVLSQPHLPFFR
Take B2: in data set [2], the “Kinase Activity” value was determined as 1X.

B3: MAP2K7 p.R162H: MAP2K7 somatic mutant, observed in colorectal adenocarcinoma (protein, UniProt O14733 2-419, looked up, variant R162H)
Dual specificity …: AASSLEQKLSRLEAKLKQENREARRRIDLNLDISPQRPRPTLQLPLANDGGSRSPSSESSPQHPTPPARPRHMLGLPSTLFTPRSMESIEIDQKLQEIMKQTGYLTIGGQRYQAEINDLENLGEMGSGTCGQVWKMRFRKTGHVIAVKQMRRSGNKEENKHILMDLDVVLKSHDCPYIVQCFGTFITNTDVFIAMELMGTCAEKLKKRMQGPIPERILGKMTVAIVKALYYLKEKHGVIHRDVKPSNILLDERGQIKLCDFGISGRLVDSKAKTRSAGCAAYMAPERIDPPDPTKPDYDIRADVWSLGISLVELATGQFPYKNCKTDFEVLTKVLQEEPPLLPGHMGFSGDFQSFVKDCLTKDHRKRPKYNKLLEHSFIKRYETLEVDVASWFKDVMAKTESPRTSGVLSQPHLPFFR
As to B3, in data set [2], the “Kinase Activity” value amounted to 1X.

B4: MAP2K4 p.S251N: MAP2K4 somatic mutant identified in a melanoma (protein, UniProt P45985 2-399, looked up, variant S251N)
Dual specificity …: AAPSPSGGGGSGGGSGSGTPGPVGSPAPGHPAVSSMQGKRKALKLNFANPPFKSTARFTLNPNPTGVQNPHIERLRTHSIESSGKLKISPEQHWDFTAEDLKDLGEIGRGAYGSVNKMVHKPSGQIMAVKRIRSTVDEKEQKQLLMDLDVVMRSSDCPYIVQFYGALFREGDCWICMELMSTSFDKFYKYVYSVLDDVIPEEILGKITLATVKALNHLKENLKIIHRDIKPSNILLDRSGNIKLCDFGINGQLVDSIAKTRDAGCRPYMAPERIDPSASRQGYDVRSDVWSLGITLYELATGRFPYPKWNSVFDQLTQVVKGDPPQLSNSEEREFSPSFINFVNLCLTKDESKRPKYKELLKHPFILMYEERAVEVACYVCKILDQMPATPSSPMYVD
Consider B4, for which the “Kinase Activity” value in data set [2] was found to be 1X.

B5: MAP2K4 p.A279T: MAP2K4 somatic driver mutant, observed in colorectal adenocarcinoma (protein, UniProt P45985 2-399, looked up, variant A279T)
Dual specificity …: AAPSPSGGGGSGGGSGSGTPGPVGSPAPGHPAVSSMQGKRKALKLNFANPPFKSTARFTLNPNPTGVQNPHIERLRTHSIESSGKLKISPEQHWDFTAEDLKDLGEIGRGAYGSVNKMVHKPSGQIMAVKRIRSTVDEKEQKQLLMDLDVVMRSSDCPYIVQFYGALFREGDCWICMELMSTSFDKFYKYVYSVLDDVIPEEILGKITLATVKALNHLKENLKIIHRDIKPSNILLDRSGNIKLCDFGISGQLVDSIAKTRDAGCRPYMAPERIDPSTSRQGYDVRSDVWSLGITLYELATGRFPYPKWNSVFDQLTQVVKGDPPQLSNSEEREFSPSFINFVNLCLTKDESKRPKYKELLKHPFILMYEERAVEVACYVCKILDQMPATPSSPMYVD
Consider B5, for which the “Kinase Activity” value in data set [2] was less than 1X.

B6: MAP2K4 p.N2341: MAP2K4 somatic driver mutant, observed in ovarian serous carcinoma (protein, UniProt P45985 2-399, looked up, variant N234I)
Dual specificity …: AAPSPSGGGGSGGGSGSGTPGPVGSPAPGHPAVSSMQGKRKALKLNFANPPFKSTARFTLNPNPTGVQNPHIERLRTHSIESSGKLKISPEQHWDFTAEDLKDLGEIGRGAYGSVNKMVHKPSGQIMAVKRIRSTVDEKEQKQLLMDLDVVMRSSDCPYIVQFYGALFREGDCWICMELMSTSFDKFYKYVYSVLDDVIPEEILGKITLATVKALNHLKENLKIIHRDIKPSIILLDRSGNIKLCDFGISGQLVDSIAKTRDAGCRPYMAPERIDPSASRQGYDVRSDVWSLGITLYELATGRFPYPKWNSVFDQLTQVVKGDPPQLSNSEEREFSPSFINFVNLCLTKDESKRPKYKELLKHPFILMYEERAVEVACYVCKILDQMPATPSSPMYVD
Turning to B6, the “Kinase Activity” value in data set [2] is 2.5X^.

B7: JNK2 p.V13M: JNK2 somatic mutant, observed in colorectal adenocarcinoma (protein, UniProt P45984 1-424, looked up, variant V13M)
Mitogen-activated protein …: MSDSKCDSQFYSMQVADSTFTVLKRYQQLKPIGSGAQGIVCAAFDTVLGINVAVKKLSRPFQNQTHAKRAYRELVLLKCVNHKNIISLLNVFTPQKTLEEFQDVYLVMELMDANLCQVIHMELDHERMSYLLYQMLCGIKHLHSAGIIHRDLKPSNIVVKSDCTLKILDFGLARTACTNFMMTPYVVTRYYRAPEVILGMGYKENVDIWSVGCIMGELVKGCVIFQGTDHIDQWNKVIEQLGTPSAEFMKKLQPTVRNYVENRPKYPGIKFEELFPDWIFPSESERDKIKTSQARDLLSKMLVIDPDKRISVDEALRHPYITVWYDPAEAEAPPPQIYDAQLEEREHAIEEWKELIYKEVMDWEERSKNGVVKDQPSDAAVSSNATPSQSSSINDISSMSTEQTLASDTDSSLDASTGPLEGCR
As for B7, the Tumorigenicity in vivo entry in data set [1] is “YES”.

B8: JNK2 p.K56N: JNK2 somatic mutant, observed in head & neck squamous cell (protein, UniProt P45984 1-424, looked up, variant K56N)
Mitogen-activated protein …: MSDSKCDSQFYSVQVADSTFTVLKRYQQLKPIGSGAQGIVCAAFDTVLGINVAVKNLSRPFQNQTHAKRAYRELVLLKCVNHKNIISLLNVFTPQKTLEEFQDVYLVMELMDANLCQVIHMELDHERMSYLLYQMLCGIKHLHSAGIIHRDLKPSNIVVKSDCTLKILDFGLARTACTNFMMTPYVVTRYYRAPEVILGMGYKENVDIWSVGCIMGELVKGCVIFQGTDHIDQWNKVIEQLGTPSAEFMKKLQPTVRNYVENRPKYPGIKFEELFPDWIFPSESERDKIKTSQARDLLSKMLVIDPDKRISVDEALRHPYITVWYDPAEAEAPPPQIYDAQLEEREHAIEEWKELIYKEVMDWEERSKNGVVKDQPSDAAVSSNATPSQSSSINDISSMSTEQTLASDTDSSLDASTGPLEGCR
With B8, the Tumorigenicity in vivo entry in data set [1] is reported as “YES”.

B9: MAP2K4 WT: wild type MAP2K4 kinase ORF expressed from lentiviral vector in HMEL cells (protein, UniProt P45985 1-399, looked up)
chain: MAAPSPSGGGGSGGGSGSGTPGPVGSPAPGHPAVSSMQGKRKALKLNFANPPFKSTARFTLNPNPTGVQNPHIERLRTHSIESSGKLKISPEQHWDFTAEDLKDLGEIGRGAYGSVNKMVHKPSGQIMAVKRIRSTVDEKEQKQLLMDLDVVMRSSDCPYIVQFYGALFREGDCWICMELMSTSFDKFYKYVYSVLDDVIPEEILGKITLATVKALNHLKENLKIIHRDIKPSNILLDRSGNIKLCDFGISGQLVDSIAKTRDAGCRPYMAPERIDPSASRQGYDVRSDVWSLGITLYELATGRFPYPKWNSVFDQLTQVVKGDPPQLSNSEEREFSPSFINFVNLCLTKDESKRPKYKELLKHPFILMYEERAVEVACYVCKILDQMPATPSSPMYVD
modifications: full-length
notes: wild type MAP2K4 kinase ORF expressed from lentiviral vector in HMEL cells
Regarding B9, the Tumorigenicity in vivo result in data set [1] is “YES”. The molecule also registered a tumor penetrance in data set [1] (secondary validation, kinase transduced individually into HMEL-BRAF^V600E melanocytes) of 30%. Also, the “Kinase Activity” value in data set [2] was 1X.
